From patent US5753621A, “Pulmonary surfactant protein fragments” (Abbott Laboratories, priority 1995, dated 1998)
No end group written: not given here. *: point of attachment. Acm = CC(=O)NC*

Legend:
Assay type in all cases: physicochemical
[1] = Dynamic surface tension versus compressed surface area, modified Wilhelmy Surface Balance (Langmuir Trough); details: peptide 0.5 mg/ml (~2% of solids) in DPPC:PG:PA 68:22:9; 675 ug phospholipid on 445 sq. cm trough; recorded during seven complete cycles
Procedure: (§1) Prior to testing for surface activity, the synthetic fragments were admixed with lipids. A lipid mixture consisting of 68% 1,2-dipalmitoyl-sn-phosphatidylcholine (DPPC), 22% egg phosphatidylglycerol (PG) and 9% palmitic acid on a weight basis was prepared by dissolving the lipids in chloroform:methanol (2:1). The required amount of peptide fragment was dissolved in methanol and heated to 60° C. for 10 minutes. The peptide solution was then added to the lipid mixture prewarmed to 45° C. for ten minutes. The samples were mixed at 45° C. by gentle swirling at 100 revolutions per minute on a Buchi rotary evaporator. The organic solvents were then evaporated at 45° C. by increasing the vacuum in 100 torr increments every five minutes until most of the solvent was removed. Final vacuum was between 150-200 torr. Following evaporation, the solids were then suspended in 10% ethanol prewarmed to 45° C. and which was prepared using deionized distilled water. The suspension was gently mixed with vortexing and placed back under vacuum at 600 torr with a repeat of the vacuum ramping process. Final vacuum for the ethanol removal was 50 torr. Following complete removal of ethanol the suspension was diluted with aqueous 0.15M NaCl at 45° C. to yield an admixture with a phospholipid concentration of 25 mg/ml. The peptide/lipid admixtures were formed at final peptide concentrations of 0.5 mg/ml (equivalent to 2% of solids concentration).
The dynamic surface tension lowering properties of the peptide/lipid admixtures were studied using a modified Wilhelmy Surface Balance (Langmuir Trough). The instrument consists of an all Teflon trough and movable Teflon ribbon (dam) barrier system which completely contains and defines a variable surface area. Surface area was varied through the use of a constant rate reversible 3-phase motor to drive the Teflon barrier. A Cahn 2000 electrobalance (Cahn Instruments, Cerittos, Calif.) with a sandblasted 1 cm platinum plate and stainless steel hangdown wire was employed to determine the surface tension at the liquid-air interface. The entire apparatus was situated in a thermostated incubator set at 45° C. Surface area-surface tension measurements were made by adding 950 ml of 0.15M NaCl to the trough. Subphase temperature was controlled during the measurements at 36°-38° C.
For each experiment 27 ul of peptide/lipid admixture was applied in a random array of 13 droplets to the surface of the temperature controlled subphase and allowed to spread spontaneously for 3 minutes. (The 27 ul application corresponds to 675 ug of phospholipid). The trough surface area was then cycled from a maximum (445 sq. cm) to a minimum (178 sq. cm) surface area and back to maximum at a cycling rate of 3 cycles/min (compression ratio 2.5:1). The dynamic surface tension versus surface area was recorded for 7 complete compression-expansion cycles for each application.

[2] = Adsorption capacity, modified Wilhelmy surface balance; details: measured after three (3) minutes spreading time; peptide 0.5 mg/ml (~2% of solids)
Procedure: as §1
A procedure similar to that described by Notter, et al., Pediatric Res. 16, 515-519 (1982) was employed to determine the absorption rate in the absence of diffusion resistance. The modified Wilhelmy surface balance as described above was used. However, instead of using a Langmuir trough, a round Teflon dish (5.1 cm diameter) was employed. The subphase, 70 ml of 0.15M NaCl, was allowed to equilibrate to 37° C. in the incubator and was continuously stirred with a Teflon coated magnetic stirrer. An aliquot of the peptide/lipid fragment admixture containing 5 mg of total phospholipid was dispersed in 10 ml of 0.15M NaCl by vortexing for 10 seconds. This dispersion was then added to the saline subphase. Surface tension lowering was monitored using a strip chart recorder connected to the electro-balance output.

[3] = Pulsating Bubble Surfactometer (PBS) surface tension; details: after 5 minutes pulsation (100 cycles); 1 mg/ml phospholipid, peptide 2% of phospholipids; 0.15M NaCl; 37° C.; 20 cycles/minute; SD in parenthesis
Procedure: as §1
The PBS equipment (Electronetics, Buffalo, N.Y.) used was essentially equivalent to that described in detail by G. Enhorning, J. Appld. Physiol. 43, 198-203, (1977). Recordings were made of the pressure gradient across the wall of a small air bubble, communicating with ambient air by means of a narrow chimney stack, but otherwise entirely surrounded by a 40 ul volume of the peptide/lipid admixture. The admixture concentration employed for these studies was 1 mg/ml total phospholipid (0.02 mg/ml total peptide) and the diluent was 0.15M NaCl.
Immediately prior to loading the sample chamber, the diluted samples were sonicated for 15 seconds to remove any gas nuclei.
The pressure drop across the air-water interface was measured during pulsation by a pressure transducer, and the corresponding surface tension was determined at minimum and maximum bubble size through the application of Young's law and the Laplace equation. Measurements were all made at 37° C. and the bubble pulsed at 20 cycles/minute to render respectively a maximum (1.1 mm) and a minimum (0.8 mm) bubble diameter. (This compression/expansion corresponds to a 50% change in the surface area of the air-water interface).

[4] = Relative surface activity by dilution studies on the modified Wilhelmy Balance-Langmuir Trough; details: for Mean Minimum Surface Tension, relative peptide concentration 1/2: 1/2 dilution of equimolar stock with lipid mixture; for Mean Minimum Surface Tension, relative peptide concentration 1/2 / Mean Minimum Surface Tension, relative peptide concentration 1/4 / Mean Minimum Surface Tension, relative peptide concentration 1/8 / Mean Minimum Surface Tension, relative peptide concentration 1/16 / Mean Minimum Surface Tension, relative peptide concentration Equimolar / Mean Minimum Surface Tension, relative peptide concentration 2%: 675 ug phospholipid; for Mean Minimum Surface Tension, relative peptide concentration 1/4: 1/4 dilution of equimolar stock with lipid mixture; for Mean Minimum Surface Tension, relative peptide concentration 1/8: 1/8 dilution of equimolar stock with lipid mixture; for Mean Minimum Surface Tension, relative peptide concentration 1/16: 1/16 dilution of equimolar stock with lipid mixture; for Mean Minimum Surface Tension, relative peptide concentration Equimolar: equimolar to 0.5 mg/mL SP-B(53-78); for Mean Minimum Surface Tension, relative peptide concentration Equimolar / Mean Minimum Surface Tension, relative peptide concentration 2%: 445 sq. cm trough; for Mean Minimum Surface Tension, relative peptide concentration 2%: peptide 2% of solids (0.5 mg/ml); for surface activity (in words): summary of Tables 3, 4 and 5
Procedure: For the purpose of this comparison "surface activity" is defined as follows: For any given peptide concentration, the admixture is required to result in a minimum dynamic surface tension of less than 10 dynes/cm for each of seven consecutive expansion/compression cycles.
Initially each of the admixtures was formulated so as to contain an equal number of moles of the individual peptide as is contained in a 0.5 mg/mL admixture of SP-B(53-78). […] Thereafter, each of these admixtures was diluted with the standard lipid mixture as described in Example 4, so as to provide doubling dilutions of the equimolar "parent" stock peptide admixture. The lipid concentration in all cases was maintained at 25 mg/ml.
Assessment of relative surface activity was conducted on the modified Wilhemy-Langmuir Surface Balance. For these studies a standard volume of 27 ul of each admixture, corresponding to a total phospholipid mass of 675 ug, was applied to the Langmuir Trough with maximum dimensions of 445 sq. cm.

Substance | Surface Tension Maximum [1] | Surface Tension Minimum [1] | Adsorption (equilibrium adsorption surface tension) [2] | Surface tension Maximum (maximum bubble size) [3] | Surface tension Minimum (minimum bubble size) [3] | Mean Minimum Surface Tension, relative peptide concentration 1/2 [4] | Mean Minimum Surface Tension, relative peptide concentration 1/4 [4] | Mean Minimum Surface Tension, relative peptide concentration 1/8 [4] | Mean Minimum Surface Tension, relative peptide concentration 1/16 [4] | Mean Minimum Surface Tension, relative peptide concentration Equimolar [4] | Mean Minimum Surface Tension, relative peptide concentration 2% [4] | surface activity (in words) [4]
SP-B(53-78): replica of the 26 residue carboxyl terminal region of native human SP-B (YSVILLDTLLGRMLPQLVCRLVLRCS; Pulmonary surfactant-associated protein B; UniProt P07988 253-278, looked up, fragment) | 50.4 dynes/cm | 1.1 dynes/cm | 47.0 dynes/cm | 56.7 (2.9) dyne/cm | 1.5 (0.6) dyne/cm | 0.6 mN/m | 0.5 mN/m | 2.0 mN/m | 14.5 mN/m | 0.7 mN/m | 0.1 mN/m | 
SP-B(53-78)diAcm: SP-B positions 53-78, cysteines 71 and 77 capped with S-acetamidomethyl (Acm) groups (YSVILLDTLLGRMLPQLVC(Acm)RLVLRC(Acm)S; UniProt P07988 253-278, looked up, fragment) | 49.5 dynes/cm | 0.1 dynes/cm | 47.0 dynes/cm | 54.1 (2.6) dyne/cm | 4.1 (3.1) dyne/cm |  |  |  |  |  | 0.1 mN/m | unusual surface activity
SP-B(58-78)diAla: SP-B positions 58-78, cysteines 71 and 77 replaced by alanine (LDTLLGRMLPQLVARLVLRAS; Pulmonary surfactant-associated protein B; UniProt P07988 258-278, looked up, variant C71A C77A) | 57.0 dynes/cm | 0.2 dynes/cm | 39.7 dynes/cm | 52.0 (3.3) dyne/cm | 7.5 (1.2) dyne/cm | 0.3 mN/m | 1.5 mN/m | 4.7 mN/m | 24.1 mN/m | 0.0 mN/m | 0.2 mN/m | unusual surface activity
SP-B(66-78): synthesized SP-B peptide fragment, positions 66-78, 13 amino acids (LPQLVCRLVLRCS; not fully specified; cysteine pairing not given here; UniProt P07988 266-278, looked up, fragment) | 50.7 dynes/cm | 0.7 dynes/cm | 47.5 dynes/cm | 61.5 (5.4) dyne/cm | 9.4 (1.4) dyne/cm | 2.8 mN/m | 6.7 mN/m | 14.9 mN/m | 22.0 mN/m | 0.6 mN/m | 0.7 mN/m | 
SP-B(66-78)diLys: SP-B positions 66-78, cysteines 71 and 77 replaced with lysine (LPQLVKRLVLRKS; Pulmonary surfactant-associated protein B; UniProt P07988 266-278, looked up, variant C71K C77K) | 56.5 dynes/cm | 2.6 dynes/cm | 48.9 dynes/cm | 55.1 (6.6) dyne/cm | 1.8 (0.5) dyne/cm | 8.2 mN/m | 7.0 mN/m | 15.0 mN/m | 23.0 mN/m | 2.5 mN/m | 2.6 mN/m | 
SP-B(69-78): synthesized SP-B peptide fragment, positions 69-78, 10 amino acids (LVCRLVLRCS; Pulmonary surfactant-associated protein B; UniProt P07988 269-278, looked up, fragment) | 65.0 dynes/cm | 6.3 dynes/cm | 56.5 dynes/cm | 64.0 (5.0) dyne/cm | 27.3 (0.5) dyne/cm | 12.5 mN/m | 13.8 mN/m | 12.2 mN/m |  | 13.3 mN/m | 6.3 mN/m | 
